Laboratory results reported in patent publication US20030032788.
Changes are numbered by the printed parent chain.

Molecular target: T1, endogenous rat mitochondrial aldehyde dehydrogenase (ALDH2) of H4-II-E-C3 hepatoma cells, P11884
T1 chain: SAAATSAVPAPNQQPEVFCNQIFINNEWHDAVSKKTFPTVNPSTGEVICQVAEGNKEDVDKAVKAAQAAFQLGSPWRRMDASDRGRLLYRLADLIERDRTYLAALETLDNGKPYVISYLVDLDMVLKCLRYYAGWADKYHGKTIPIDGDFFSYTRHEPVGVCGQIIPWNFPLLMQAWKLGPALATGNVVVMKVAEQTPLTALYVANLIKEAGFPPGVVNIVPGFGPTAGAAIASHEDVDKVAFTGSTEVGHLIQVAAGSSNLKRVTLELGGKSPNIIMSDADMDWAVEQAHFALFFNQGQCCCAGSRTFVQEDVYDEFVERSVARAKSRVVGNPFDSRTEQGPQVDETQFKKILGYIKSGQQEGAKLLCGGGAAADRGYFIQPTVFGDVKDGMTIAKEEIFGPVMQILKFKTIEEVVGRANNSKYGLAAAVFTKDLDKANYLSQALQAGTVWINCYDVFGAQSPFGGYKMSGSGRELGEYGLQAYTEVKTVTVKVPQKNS

B1: human ALDH2-2 (mutant) monomer, expressed from the retroviral vector pLHCK3'UT in rat hepatoma H4-II-E-C3 cells (protein)
chain: SAAATQAVPAPNQQPEVFCNQIFINNEWHDAVSRKTFPTVNPSTGEVICQVAEGDKEDVDKAVKAARAAFQLGSPWRRMDASHRGRLLNRLADLIERDRTYLAALETLDNGKPYVISYLVDLDMVLKCLRYYAGWADKYHGKTIPIDGDFFSYTRHEPVGVCGQIIPWNFPLLMQAWKLGPALATGNVVVMKVAEQTPLTALYVANLIKEAGFPPGVVNIVPGFGPTAGAAIASHEDVDKVAFTGSTEIGRVIQVAAGSSNLKRVTLELGGKSPNIIMSDADMDWAVEQAHFALFFNQGQCCCAGSRTFVQEDIYDEFVERSVARAKSRVVGNPFDSKTEQGPQVDETQFKKILGYINTGKQEGAKLLCGGGIAADRGYFIQPTVFGDVQDGMTIAKEEIFGPVMQILKFKTIEEVVGRANNSTYGLAAAVFTKDLDKANYLSQALQAGTVWVNCYDVFGAQSPFGGYKMSGSGRELGEYGLQAYTKVKTVTVKVPQKNS
B1 was tested. Which ALDH2 specific activity of ALDH2-2 transduced H4 clones (lower end of range) (nanomoles/minute/milligram protein) did it give?
Its ALDH2 specific activity of ALDH2-2 transduced H4 clones (lower end of range) (nanomoles/minute/milligram protein) is 15.

What about the ALDH2 specific activity of ALDH2-2 transduced H4 clones (mean ± SEM, N=22) (nanomoles/minute/milligram protein) of the same protein?
Its ALDH2 specific activity of ALDH2-2 transduced H4 clones (mean ± SEM, N=22) (nanomoles/minute/milligram protein) is 40.4.

And the ALDH2 specific activity of ALDH2-2 transduced H4 clones (upper end of range) (nanomoles/minute/milligram protein)?
The ALDH2 specific activity of ALDH2-2 transduced H4 clones (upper end of range) (nanomoles/minute/milligram protein) was 54.

And the “reduction in hepatocyte ALDH2 activity” value?
The value was “leads to a >60% reduction in hepatocyte ALDH2 activity”.

B2: human ALDH2-1 (wild-type) monomer, expressed from the retroviral vector pLNCE in rat hepatoma H4-II-E-C3 cells (protein)
chain: B1 chain with K487E
Which results are given for B2?
ALDH2 specific activity of ALDH2-1 transduced H4 clones (lower end of range) (nanomoles/minute/milligram protein): 42; ALDH2 specific activity of ALDH2-1 transduced H4 clones (mean ± SEM, N=15) (nanomoles/minute/milligram protein): 54.7; ALDH2 specific activity of ALDH2-1 transduced H4 clones (upper end of range) (nanomoles/minute/milligram protein): 78; increase of ALDH activity relative to the empty vector control group: ALDH activity was increased by as much as 52% in some ALDH2-1 transduced clones
